± gives the standard error. For some of these results: This sample holds only a part of the variants without activity.
B1: glmS ribozyme (parent)
chain: AUAAAAGCGCCAGAACUACAGAAAUGUAGUUGACGAGGAGGAGGUUUAUCGAAUUUUCGGCGGAUGCCUCCAAA

Legend:
Settings in all cases: with glucosamine-6-phosphate
[1] = variants of: B1; test: kcat; higher = faster cleavage; RNA array
Summary of the method: (§1)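 Barcoded ribozyme variants on sequenced MiSeq chips were transcribed in situ by E. coli RNA polymerase and followed at 37 °C through a hybridised Cy3 probe. Glucosamine-6-phosphate at 40 μM to 10 mM in HEPES/KCl/Mg(OAc)2 buffer was flowed in, and tiles were imaged over ~14 h. Signals were normalised to baseline and to non-cleaving reference variants, and per-tile medians were fit to one- or two-exponential decays to give kobs. Weighted Michaelis–Menten fits across concentrations gave kcat and KM.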

[2] = variants of: B1; test: self-cleavage kobs at 160 uM GlcN6P; higher = faster cleavage; RNA array
Summary of the method: as §1

[3] = variants of: B1; test: self-cleavage kobs at 640 uM GlcN6P; higher = faster cleavage; RNA array
Summary of the method: as §1

[4] = variants of: B1; test: self-cleavage kobs at 2500 uM GlcN6P; higher = faster cleavage; RNA array
Summary of the method: as §1

[5] = variants of: B1; test: KM; higher = weaker cofactor use; RNA array
Summary of the method: as §1

[6] = variants of: B1; test: self-cleavage kobs at 40 uM GlcN6P; higher = faster cleavage; RNA array
Summary of the method: as §1

[7] = variants of: B1; test: self-cleavage kobs at 10000 uM GlcN6P; higher = faster cleavage; RNA array
Summary of the method: as §1

Variant	kcat [1] [s⁻¹]	self-cleavage kobs at 160 uM GlcN6P [2] [s⁻¹]	self-cleavage kobs at 640 uM GlcN6P [3] [s⁻¹]	self-cleavage kobs at 2500 uM GlcN6P [4] [s⁻¹]	KM [5] [µM]	self-cleavage kobs at 40 uM GlcN6P [6] [s⁻¹]	self-cleavage kobs at 10000 uM GlcN6P [7] [s⁻¹]
G29A C68G	3.6e-05 ± 1e-05	2.59e-05 ± 1.2e-05	4.89e-05 ± 9.9e-06	3.97e-05 ± 1.1e-05			
G29A C68U	0.000627 ± 0.0001	6.11e-05 ± 8.5e-06	0.000122 ± 2.6e-05	0.000374 ± 4.7e-05	1720 ± 550	2.8e-05 ± 8.3e-06	0.000549 ± 5.1e-05
G29U A33U	6.61e-05 ± 1.9e-06			2.87e-05 ± 9.6e-06	3280 ± 300		4.97e-05 ± 6.7e-06
G29U A48C	1.88e-05 ± 3.6e-07	< 1e-05			138 ± 42	< 1e-05	1.85e-05 ± 7.6e-06
G29U G37U	< 1e-05						< 1e-05
U30A A52U C70U	7.84e-05 ± 3.9e-06	4.9e-05 ± 1.3e-05	7.62e-05 ± 1.7e-05	7.31e-05 ± 1.4e-05	89.4 ± 24		7.39e-05 ± 2.7e-05
U30A U57A	6.66e-05 ± 1.8e-05		3.87e-05 ± 1.5e-05	3.73e-05 ± 1.2e-05		< 1e-05	6.84e-05 ± 1.4e-05
U30A U57G	2.86e-05 ± 9.5e-06			3.99e-05 ± 1.7e-05			
C16U G63A	< 1e-05			< 1e-05		< 1e-05	< 1e-05
G29C G66A	0.00186 ± 0.00025	6.45e-05 ± 1.3e-05	0.00027 ± 3.9e-05	0.000714 ± 0.00013	4030 ± 750		0.00132 ± 0.0002
G29U U45G	0.000648 ± 0.00013	3.73e-05 ± 1.2e-05	0.000217 ± 2.8e-05	0.00064 ± 0.00013	1660 ± 680		0.000522 ± 5.5e-05
G29U U45A	0.0141 ± 0.0034	0.000796 ± 0.00018	0.00237 ± 0.00044	0.00765 ± 0.0017	2740 ± 820	0.000225 ± 4.9e-05	0.0103 ± 0.005
G29U G38A G59A C67A U69G	2.86e-05 ± 6.2e-06						
G29C U55A	0.00298 ± 0.00096	0.000171 ± 3e-05	0.000406 ± 6.1e-05	0.00139 ± 0.00019	3270 ± 1400	4.44e-05 ± 1.1e-05	0.00222 ± 0.00061
G21A C58G U69G C71U	4e-05 ± 1e-05	5.48e-05 ± 1.6e-05	4.19e-05 ± 1.7e-05	3.42e-05 ± 1.6e-05			
U30A G66A	0.0034 ± 0.00044	0.00021 ± 5.2e-05	0.000751 ± 0.00018	0.00197 ± 0.00024	1870 ± 370	8.19e-05 ± 1e-05	0.0029 ± 0.00037

Variant	kcat [1] [s⁻¹]	self-cleavage kobs at 160 uM GlcN6P [2] [s⁻¹]	self-cleavage kobs at 640 uM GlcN6P [3] [s⁻¹]	self-cleavage kobs at 2500 uM GlcN6P [4] [s⁻¹]	KM [5] [µM]	self-cleavage kobs at 40 uM GlcN6P [6] [s⁻¹]	self-cleavage kobs at 10000 uM GlcN6P [7] [s⁻¹]
U30A G66U	0.000236 ± 1.9e-05		5.93e-05 ± 7.9e-06	0.000159 ± 1.6e-05	1720 ± 340		0.000195 ± 1.5e-05
G29A C71A	0.000446 ± 4.4e-05		0.000233 ± 4e-05	0.000344 ± 0.0001	592 ± 140		0.000437 ± 0.00014
U30A U45A C50U	< 1e-05	< 1e-05					
G29C A42G	0.00279 ± 0.00031	0.000209 ± 4e-05	0.000724 ± 0.00013	0.00144 ± 0.00025	1790 ± 300	6.95e-05 ± 1e-05	0.00253 ± 0.00032
U30A G37C	< 1e-05	< 1e-05	< 1e-05			< 1e-05	
G29U A64G	0.00507 ± 0.0025	0.000495 ± 0.00011	0.000939 ± 0.0002	0.00221 ± 0.00045		0.000212 ± 3.2e-05	0.00594 ± 0.00078
U30A C68U	0.000818 ± 0.00016	9.37e-05 ± 2e-05	0.000204 ± 2.7e-05	0.000417 ± 6.6e-05	1730 ± 610	3.27e-05 ± 1.2e-05	0.000776 ± 9.4e-05
C16U U54G	0.0201 ± 0.0063	0.00138 ± 0.00023	0.00575 ± 0.00092	0.0115 ± 0.0019	1720 ± 730	0.000682 ± 0.00011	0.0185 ± 0.0042
U30C C71G	4.29e-05 ± 9.8e-06		4.3e-05 ± 1.8e-05	7.05e-05 ± 1.2e-05			3.35e-05 ± 7.1e-06
C16U U69G	6.57e-05 ± 1.1e-05	5.84e-05 ± 1.4e-05	9.02e-05 ± 2.1e-05	8.96e-05 ± 1.1e-05			5.34e-05 ± 6.6e-06
G29U G43A	< 1e-05	< 1e-05				< 1e-05	
G29A U45C	0.000385 ± 7.7e-05	3.6e-05 ± 1.4e-05	8.28e-05 ± 1.4e-05	0.000273 ± 4.1e-05	2000 ± 720		0.000293 ± 5e-05
U30A U65A	0.000636 ± 0.00012	5.83e-05 ± 2e-05	0.000114 ± 2.4e-05	0.000384 ± 8.4e-05	2480 ± 800		0.000495 ± 8.6e-05
G29A C50A	1.1e-05 ± 3.2e-06						
U30A U47C C70G	4.3e-05 ± 6.7e-06			3.41e-05 ± 1.5e-05			3.72e-05 ± 1.7e-05

From the supplement of paper PMC7125110
